From paper PMC8553427

Molecular target: T1, AtMYB5trunc (truncated MYB5, MYB DNA-binding domain) (Arabidopsis thaliana (Col)) (UniProt Q38850)
T1 sequence: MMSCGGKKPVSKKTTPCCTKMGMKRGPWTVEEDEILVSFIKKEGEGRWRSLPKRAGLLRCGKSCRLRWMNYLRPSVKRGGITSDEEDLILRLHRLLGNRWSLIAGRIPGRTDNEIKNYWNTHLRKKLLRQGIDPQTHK
Assay: EMSA
Conditions: 20 mM NaCl, 5 mM MgCl2, 20 mM Tris pH 8.0, 10% glycerol, 0.5 mM EDTA, 0.5 mM DTT, poly d(I-C); temperature not stated

“CGATGGTCACTTTCCTCATACTCTTTCTATATTGACTGTTAGTTTCTGGTCATTCTCGAAACAAACACTACATTGACTGTTAGATTTCTCATTTCAACCAAAGTAAGTAATAAATTCTGAACC (double strand) [ABE4 promoter probe]” was tested, and the binding was “binds more weakly”.
